{"source": "patent US8242083B2", "about": "“Kinase substrates” (PerkinElmer Health Sciences, Inc., priority 2008, dated 2012)", "assay_type_in_all_cases": "biochemical", "key": {"[1]": {"target": "EGFR (Homo sapiens, UniProt P00533)", "experiment": "TR-FRET kinase assay, EGFR", "conditions": "Kinase Concentration 0.5 nM; 50 nM ULight-labeled substrate, 200 micromolar ATP, 2 hours", "description": "(§1) TR-FRET kinase assays are performed under standardized conditions: various individual kinases are incubated with 50 nM of kinase substrate BRB1 labeled with the TR-FRET acceptor dye ULight (PerkinElmer) and 200 micromolar ATP in 10 μL of kinase assay buffer (50 mM HEPES pH7.5, 10 mM MgCl2, 3 mM MnCl2, 1 mM EGTA, 2 mM DTT and 0.01% Tween-20) for 2 hours at room temperature. Reactions are stopped with EDTA, and anti-phospho-tyrosine antibodies (clone PT66) labeled with the TR-FRET europium chelate donor dye are added to a final concentration of 2 nM in a final volume of 20 μL. The TR-FRET signal emitted at 665 nm is read one hour after the addition of antibodies using a TR-FRET plate reader such as the Envision® Multilabel Plate reader (PerkinElmer). The emitted signal at 665 nm is proportional to the extent of peptide phosphorylation, Control reactions indicative of background are performed excluding ATP from the reaction.\n(§2) Assay conditions are identical to those used described for FIG. 1."}, "[2]": {"target": "T1, EphA6 (Homo sapiens, UniProt Q9UF33)", "T1 sequence (Q9UF33 23-1036)": "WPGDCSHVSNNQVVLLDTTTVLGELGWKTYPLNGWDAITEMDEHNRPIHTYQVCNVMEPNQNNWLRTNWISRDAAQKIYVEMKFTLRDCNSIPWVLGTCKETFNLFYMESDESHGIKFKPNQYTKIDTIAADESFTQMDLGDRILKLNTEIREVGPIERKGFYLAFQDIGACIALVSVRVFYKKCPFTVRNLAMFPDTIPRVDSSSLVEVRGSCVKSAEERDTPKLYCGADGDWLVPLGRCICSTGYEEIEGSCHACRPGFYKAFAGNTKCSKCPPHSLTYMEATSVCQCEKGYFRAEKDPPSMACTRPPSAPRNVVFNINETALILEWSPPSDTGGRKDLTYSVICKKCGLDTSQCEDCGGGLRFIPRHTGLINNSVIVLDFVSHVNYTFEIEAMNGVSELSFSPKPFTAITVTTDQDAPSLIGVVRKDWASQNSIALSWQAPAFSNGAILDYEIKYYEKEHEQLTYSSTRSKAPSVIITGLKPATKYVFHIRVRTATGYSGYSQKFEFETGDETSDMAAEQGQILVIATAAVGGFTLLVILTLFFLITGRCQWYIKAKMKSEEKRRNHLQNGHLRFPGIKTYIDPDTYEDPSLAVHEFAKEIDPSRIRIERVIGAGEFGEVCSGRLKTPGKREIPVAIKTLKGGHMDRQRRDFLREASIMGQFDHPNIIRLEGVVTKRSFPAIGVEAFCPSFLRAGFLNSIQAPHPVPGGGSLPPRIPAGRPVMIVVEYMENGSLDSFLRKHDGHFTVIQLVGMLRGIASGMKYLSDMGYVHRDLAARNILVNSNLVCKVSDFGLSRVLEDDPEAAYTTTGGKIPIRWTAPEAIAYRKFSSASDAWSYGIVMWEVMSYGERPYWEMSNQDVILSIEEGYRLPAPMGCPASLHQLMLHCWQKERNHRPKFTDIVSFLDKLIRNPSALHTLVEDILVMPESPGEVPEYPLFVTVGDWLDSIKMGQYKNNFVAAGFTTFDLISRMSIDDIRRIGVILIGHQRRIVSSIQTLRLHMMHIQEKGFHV", "experiment": "TR-FRET kinase assay, EphA6", "conditions": "Kinase Concentration 0.5 nM; 50 nM ULight-labeled substrate, 200 micromolar ATP, 2 hours", "description": "as §1, §2"}, "[3]": {"target": "ROS (Homo sapiens, UniProt P08922)", "sequence (P08922 28-2347, species assumed)": "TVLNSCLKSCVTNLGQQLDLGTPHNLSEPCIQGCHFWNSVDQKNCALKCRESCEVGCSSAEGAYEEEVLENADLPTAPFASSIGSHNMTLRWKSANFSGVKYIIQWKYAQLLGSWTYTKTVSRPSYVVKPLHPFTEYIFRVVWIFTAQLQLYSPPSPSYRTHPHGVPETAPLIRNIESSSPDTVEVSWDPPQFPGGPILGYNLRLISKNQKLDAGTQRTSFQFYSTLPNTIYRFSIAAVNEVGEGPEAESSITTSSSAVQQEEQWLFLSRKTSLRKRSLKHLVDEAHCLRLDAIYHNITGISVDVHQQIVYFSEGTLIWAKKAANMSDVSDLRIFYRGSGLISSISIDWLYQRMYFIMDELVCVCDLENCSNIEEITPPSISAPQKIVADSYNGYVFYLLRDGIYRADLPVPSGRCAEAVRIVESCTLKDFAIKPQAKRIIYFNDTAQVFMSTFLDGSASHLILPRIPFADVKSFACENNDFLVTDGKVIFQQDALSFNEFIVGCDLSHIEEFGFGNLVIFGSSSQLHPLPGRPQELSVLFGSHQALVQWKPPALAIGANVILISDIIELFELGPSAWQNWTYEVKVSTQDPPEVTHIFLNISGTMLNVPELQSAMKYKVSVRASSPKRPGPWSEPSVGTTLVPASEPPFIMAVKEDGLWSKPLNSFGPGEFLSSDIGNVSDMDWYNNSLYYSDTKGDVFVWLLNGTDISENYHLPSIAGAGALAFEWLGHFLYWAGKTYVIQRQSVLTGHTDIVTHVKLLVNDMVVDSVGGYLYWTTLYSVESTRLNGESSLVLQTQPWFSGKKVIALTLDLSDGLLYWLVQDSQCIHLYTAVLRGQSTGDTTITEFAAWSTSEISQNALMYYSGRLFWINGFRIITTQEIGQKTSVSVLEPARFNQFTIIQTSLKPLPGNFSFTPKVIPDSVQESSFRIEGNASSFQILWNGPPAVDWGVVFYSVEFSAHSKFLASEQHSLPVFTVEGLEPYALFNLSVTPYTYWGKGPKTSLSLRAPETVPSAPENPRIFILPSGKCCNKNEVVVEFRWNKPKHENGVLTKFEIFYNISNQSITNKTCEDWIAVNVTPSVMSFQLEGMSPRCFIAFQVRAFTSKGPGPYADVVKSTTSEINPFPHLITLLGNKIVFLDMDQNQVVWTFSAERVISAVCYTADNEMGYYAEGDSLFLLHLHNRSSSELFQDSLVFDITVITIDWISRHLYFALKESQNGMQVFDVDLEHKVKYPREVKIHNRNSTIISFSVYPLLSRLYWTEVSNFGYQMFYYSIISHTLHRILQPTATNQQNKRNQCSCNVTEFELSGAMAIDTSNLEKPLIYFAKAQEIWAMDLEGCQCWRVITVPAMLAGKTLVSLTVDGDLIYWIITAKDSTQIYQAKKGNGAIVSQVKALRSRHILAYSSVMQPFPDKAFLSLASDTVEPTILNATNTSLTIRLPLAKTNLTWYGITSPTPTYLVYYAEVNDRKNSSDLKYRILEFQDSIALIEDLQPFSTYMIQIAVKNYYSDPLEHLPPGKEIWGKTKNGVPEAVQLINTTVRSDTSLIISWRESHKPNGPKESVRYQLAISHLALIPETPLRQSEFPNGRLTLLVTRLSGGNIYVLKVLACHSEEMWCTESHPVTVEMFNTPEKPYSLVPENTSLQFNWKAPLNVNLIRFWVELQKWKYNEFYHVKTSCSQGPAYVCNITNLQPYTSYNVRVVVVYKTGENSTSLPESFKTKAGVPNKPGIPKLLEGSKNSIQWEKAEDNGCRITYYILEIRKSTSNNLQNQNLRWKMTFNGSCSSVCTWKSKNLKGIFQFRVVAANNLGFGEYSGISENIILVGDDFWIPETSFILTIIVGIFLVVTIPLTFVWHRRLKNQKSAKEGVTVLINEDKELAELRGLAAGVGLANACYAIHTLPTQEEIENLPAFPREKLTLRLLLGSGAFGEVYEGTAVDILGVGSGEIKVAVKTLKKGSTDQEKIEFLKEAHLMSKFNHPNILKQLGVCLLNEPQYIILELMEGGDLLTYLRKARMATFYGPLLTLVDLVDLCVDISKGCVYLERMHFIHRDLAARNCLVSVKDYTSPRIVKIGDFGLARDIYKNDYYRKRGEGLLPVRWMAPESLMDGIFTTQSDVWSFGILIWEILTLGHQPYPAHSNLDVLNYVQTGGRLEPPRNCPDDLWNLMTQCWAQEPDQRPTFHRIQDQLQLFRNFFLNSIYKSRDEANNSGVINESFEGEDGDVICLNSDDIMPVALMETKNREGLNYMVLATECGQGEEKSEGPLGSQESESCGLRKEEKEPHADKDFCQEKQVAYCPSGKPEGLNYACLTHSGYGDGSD", "experiment": "TR-FRET kinase assay, ROS", "conditions": "Kinase Concentration 0.25 nM; 50 nM ULight-labeled substrate, 200 micromolar ATP, 2 hours", "description": "as §1, §2"}, "[4]": {"target": "T2, BMX (Homo sapiens, UniProt P51813)", "T2 sequence (P51813 1-675)": "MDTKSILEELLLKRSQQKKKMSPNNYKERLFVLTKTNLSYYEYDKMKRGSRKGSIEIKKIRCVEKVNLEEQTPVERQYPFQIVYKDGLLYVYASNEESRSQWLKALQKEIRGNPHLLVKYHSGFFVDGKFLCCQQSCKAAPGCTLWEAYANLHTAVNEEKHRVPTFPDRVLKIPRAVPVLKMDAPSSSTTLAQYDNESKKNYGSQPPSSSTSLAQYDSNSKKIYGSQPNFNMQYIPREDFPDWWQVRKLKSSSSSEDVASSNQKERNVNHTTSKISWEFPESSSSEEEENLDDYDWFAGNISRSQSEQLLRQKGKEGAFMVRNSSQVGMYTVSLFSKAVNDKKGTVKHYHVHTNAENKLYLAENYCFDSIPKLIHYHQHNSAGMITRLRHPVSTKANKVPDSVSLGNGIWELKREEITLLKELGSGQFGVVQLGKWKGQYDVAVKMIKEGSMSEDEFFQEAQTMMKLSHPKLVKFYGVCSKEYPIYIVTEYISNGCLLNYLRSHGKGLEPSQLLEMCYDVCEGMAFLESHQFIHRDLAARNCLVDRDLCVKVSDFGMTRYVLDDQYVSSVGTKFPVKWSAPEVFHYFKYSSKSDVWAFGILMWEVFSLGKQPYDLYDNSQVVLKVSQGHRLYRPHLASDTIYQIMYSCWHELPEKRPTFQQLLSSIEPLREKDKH", "experiment": "TR-FRET kinase assay, BMX", "conditions": "Kinase Concentration 0.5 nM; 50 nM ULight-labeled substrate, 200 micromolar ATP, 2 hours", "description": "as §1, §2"}, "[5]": {"target": "HER4 (ERBB4) (Homo sapiens, UniProt Q15303)", "experiment": "TR-FRET kinase assay, HER4 (ERBB4)", "conditions": "Kinase Concentration 0.1 nM; 50 nM ULight-labeled substrate, 200 micromolar ATP, 2 hours", "description": "as §1, §2"}, "[6]": {"target": "LYNa (Homo sapiens, UniProt P07948)", "sequence (P07948 whole entry, species assumed)": "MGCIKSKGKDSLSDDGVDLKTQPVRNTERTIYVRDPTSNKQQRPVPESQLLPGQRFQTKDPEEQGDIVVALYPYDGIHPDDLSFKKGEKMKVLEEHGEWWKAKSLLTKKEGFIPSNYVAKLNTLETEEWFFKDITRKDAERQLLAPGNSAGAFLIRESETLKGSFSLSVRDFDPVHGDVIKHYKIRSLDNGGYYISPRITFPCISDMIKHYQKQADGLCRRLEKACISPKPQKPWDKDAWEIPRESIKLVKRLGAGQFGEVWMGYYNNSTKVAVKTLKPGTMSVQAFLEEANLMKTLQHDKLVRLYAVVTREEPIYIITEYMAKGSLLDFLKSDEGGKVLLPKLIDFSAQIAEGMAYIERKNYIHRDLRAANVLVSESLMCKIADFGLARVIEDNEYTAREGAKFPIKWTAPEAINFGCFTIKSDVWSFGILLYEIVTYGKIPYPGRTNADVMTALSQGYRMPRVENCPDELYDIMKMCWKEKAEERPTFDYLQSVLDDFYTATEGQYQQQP", "experiment": "TR-FRET kinase assay, LYNa", "conditions": "Kinase Concentration 0.5 nM; 50 nM ULight-labeled substrate, 200 micromolar ATP, 2 hours", "description": "as §1, §2"}, "[7]": {"target": "FAK (Homo sapiens, UniProt Q05397)", "sequence (Q05397 whole entry, species assumed)": "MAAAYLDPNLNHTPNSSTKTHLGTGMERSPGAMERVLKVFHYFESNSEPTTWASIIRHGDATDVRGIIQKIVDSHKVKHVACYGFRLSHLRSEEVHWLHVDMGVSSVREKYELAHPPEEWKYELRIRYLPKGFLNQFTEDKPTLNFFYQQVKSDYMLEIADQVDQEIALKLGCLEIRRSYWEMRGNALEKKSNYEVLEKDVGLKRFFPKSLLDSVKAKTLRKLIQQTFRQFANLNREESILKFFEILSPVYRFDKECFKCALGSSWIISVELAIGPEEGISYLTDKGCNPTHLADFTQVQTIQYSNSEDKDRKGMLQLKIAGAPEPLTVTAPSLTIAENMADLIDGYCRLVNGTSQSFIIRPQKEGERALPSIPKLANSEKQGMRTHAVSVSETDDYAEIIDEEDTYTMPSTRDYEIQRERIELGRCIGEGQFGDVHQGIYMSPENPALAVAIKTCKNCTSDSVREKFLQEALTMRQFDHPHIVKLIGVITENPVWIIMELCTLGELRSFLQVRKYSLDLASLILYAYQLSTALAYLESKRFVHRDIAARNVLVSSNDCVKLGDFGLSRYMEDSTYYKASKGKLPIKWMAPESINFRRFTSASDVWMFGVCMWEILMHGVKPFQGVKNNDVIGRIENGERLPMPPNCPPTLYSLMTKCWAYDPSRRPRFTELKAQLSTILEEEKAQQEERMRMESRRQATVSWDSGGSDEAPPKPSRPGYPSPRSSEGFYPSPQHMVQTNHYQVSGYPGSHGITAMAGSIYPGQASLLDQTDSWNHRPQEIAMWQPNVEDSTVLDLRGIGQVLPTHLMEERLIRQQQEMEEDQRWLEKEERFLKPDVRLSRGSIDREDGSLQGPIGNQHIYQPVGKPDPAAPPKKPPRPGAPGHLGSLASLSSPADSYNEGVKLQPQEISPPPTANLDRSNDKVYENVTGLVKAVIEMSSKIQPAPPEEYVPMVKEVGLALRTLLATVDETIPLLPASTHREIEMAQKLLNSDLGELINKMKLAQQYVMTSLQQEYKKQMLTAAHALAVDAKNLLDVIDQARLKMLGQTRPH", "experiment": "TR-FRET kinase assay, FAK", "conditions": "Kinase Concentration 3 nM; 50 nM ULight-labeled substrate, 200 micromolar ATP, 2 hours", "description": "as §1, §2"}, "[8]": {"target": "FGR (Homo sapiens, UniProt P09769)", "experiment": "TR-FRET kinase assay, FGR", "conditions": "Kinase Concentration 0.1 nM; 50 nM ULight-labeled substrate, 200 micromolar ATP, 2 hours", "description": "as §1, §2"}}}
{"sequence": "C AYE AYE AYE K EYA EYA EYA K AYA EYE R (CAYEAYEAYEKEYAEYAEYAKAYAEYER; tyrosine kinase substrate peptide) [BRB1]", "values": [{"measurement": "Signal to Noise ratio with BRB1 Peptide", "setting": "[1]", "value": 10.0}, {"measurement": "Signal to Noise ratio with BRB1 Peptide", "setting": "[2]", "value": 5.4}, {"measurement": "Signal to Noise ratio with BRB1 Peptide", "setting": "[3]", "value": 24.5}, {"measurement": "Signal to Noise ratio with BRB1 Peptide", "setting": "[4]", "value": 7.1}, {"measurement": "Signal to Noise ratio with BRB1 Peptide", "setting": "[5]", "value": 3.1}, {"measurement": "Signal to Noise ratio with BRB1 Peptide", "setting": "[6]", "value": 32.5}, {"measurement": "Signal to Noise ratio with BRB1 Peptide", "setting": "[7]", "value": 1.7}, {"measurement": "Signal to Noise ratio with BRB1 Peptide", "setting": "[8]", "value": 29.3}]}
